Measured values as given in article PMC7857395 (Science (New York, N.y.), 2020).

Biological target: SARS-CoV RBD (SARS-CoV (P59594; strain ), UniProt P59594)
Test: ELISA
Details: both partners purified

| Binder | binding result |
| --- | --- |
| S2M11 human monoclonal antibody (IgG) (antibody, V domains shown, also called S2M11 IgG; S2M11 mAb; copies: 2 + 2) VH: EVQLVQSGAEVKKPGASVKVSCKASGYTFTGYYMHWVRQAPGQGLEWMGWINPISSGTSYAQTFQGRVTMTSDTSITTAYMELSRLRSDDTAVYYCARAAPFYDFWSGYSYFDYWGQGTLVTVSS VL: not shown | no binding |
| S2E12 human monoclonal antibody (IgG) (antibody, V domains shown, also called S2E12 IgG; S2E12 mAb; copies: 2 + 2) VH: not shown VL: DIVLTQTPGTLSLSPGERATLSCRASQSVSSSYLAWYQQKPGQAPRLLIYGASSRATGIPDRFSGSGSGTDFTLTISRLEPEDFAVYYCQQYVGLTGWTFGQGTKVEIK | no binding |
